Results as given in FireProtDB (doi:10.1002/pro.100).

Conditions: Homo sapiens, 25 °C, Urea, Fluorescence, Potassium phosphate 25 mM, NaCl 25 mM, reversible: Yes, whole UniProt chain shown

B1: Prolactin wild type, P01236 (protein)
chain: MNIKGSPWKGSLLLLLVSNLLLCQSVAPLPICPGGAARCQVTLRDLFDRAVVLSHYIHNLSSEMFSEFDKRYTHGRGFITKAINSCHTSSLATPEDKEQAQQMNQKDFLSLIVSILRSWNEPLYHLVTEVRGMQEAPEAILSKAVEIEEQTKRLLEGMELIVSQVHPETKENEIYPVWSGLPSLQMADEESRLSAYYNLLHCLRRDSHKIDNYLKLLKCRIIHNNNC
With B1 the denaturant m value (pH 5.8) was 0.79 kcal/mol/M, the “denaturant midpoint (higher = more stable)” value (pH 5.8) was 5.48 M and the unfolding free energy (pH 5.8) was 4.3 kcal/mol. For the same protein, the denaturant m value (pH 7.8) was 1.35 kcal/mol/M, the “denaturant midpoint (higher = more stable)” value (pH 7.8) was 6.08 M and the unfolding free energy (pH 7.8) was 8.2 kcal/mol.
